Source: article PMC2686680, “Chibby forms a homodimer through a heptad repeat of leucine residues in its C-terminal coiled-coil motif” (BMC Molecular Biology, 2009)

Target: the molecule itself
Assay: SEC; His-Cby purified from stable HEK293T on Superdex 75 FPLC, 20 mM Tris-HCl pH 8.0, 1.0 M NaCl, 1 mM EDTA, 2 mM DTT, 2 mM betaine-HCl, 0.02% Triton X-100, 5% glycerol; fractions blotted with anti-Cby

B1: His-tagged Cby wild type (natural protein, human, UniProt Q9Y3M2 1-126, looked up)
chain: MPFFGNTFSPKKTPPRKSASLSNLHSLDRSTREVELGLEYGSPTMNLAGQSLKFENGQWIAETGVSGGVDRREVQRLRRRNQQLEEENNLLRLKVDILLDMLSESTAESHLMEKELDELRISRKRK
notes: Chibby (Cby), human, 126 amino acids; Cby cDNA in pcDNA4/HisMax A; the vector pcDNA4/HisMax A probably adds further N-terminal residues besides the His tag (surmise); also called His-Cby; His-CbyWT; source: transiently transfected for cross-linking), purified (nickel beads / Ni-NTA)
  stoichiometry N: 2
